{"source": "patent US20230331821A1", "about": "(VIR BIOTECHNOLOGY, published 2023)", "binders": {"B1": {"name": "S110 (antibody, V domains shown)", "VH": "QVQLVESGGGLVQAGGSLRLSCAASGRTFSSAGMAWFRQAPGKEREFVATSNWNGGDTDYADSVKGRFTISRDNAKNTVYLQMNNLKPEDTAVYYCAAHLQKYGGDYYARIWGQGTQVTVS"}}, "key": {"SARS1 Spike [1]": {"target": "SARS1 Spike", "assay": "ELISA, antigen coated on the plate, OD 405 nm"}, "SARS1 Spike [2]": {"target": "SARS1 Spike", "assay": "ELISA, antigen coated on the plate, OD 405 nm", "remark": "listed apart in the source"}}, "note": "Read-outs that look alike come from different tables or passages of the source.", "data": [{"binder": "B1", "values": [{"measurement": "EC50 (read off the curve)", "setting": "SARS1 Spike [1]", "value": "~0.03", "unit": "µg/mL"}, {"measurement": "EC50 (read off the curve)", "setting": "SARS1 Spike [2]", "value": "~0.03", "unit": "µg/mL"}]}]}
